Our source for the self-aminoacylation values is the supplement of paper PMC9233669.

Data set [1] relates to biotinyl-Ile-oxazolone. Briefly: self-aminoacylation, catalytic enhancement (BIO) (fold over background); higher = more active; k-Seq, kA / k0A0; sequences stand for … in GGGAAUGGAUCCACAUCUACGAAUUC…UUCACUGCAGACUUGACGAAGCUG
An outline of the steps:
(§1)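 Catalytic enhancement equals the median kA over the uncatalyzed rate, the latter read from the low-activity peak of a bimodal Gaussian fit. Values of kA came from fitting each sequence's fraction reacted to a pseudo-first-order model, with 1000 bootstraps. Reacted RNA was captured with streptavidin and quantified by triplicate qPCR and Illumina sequencing after 90 minutes at room temperature with 2–1250 μM biotinyl-aminoacyl-oxazolone and 0.43 μM mutagenized RNA pools bearing a 21-nt variable region.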

For data set [2], the system named is biotinyl-Leu-oxazolone. Briefly: self-aminoacylation, catalytic enhancement (BLO) (fold over background); higher = more active; k-Seq, kA / k0A0; sequences stand for … in GGGAAUGGAUCCACAUCUACGAAUUC…UUCACUGCAGACUUGACGAAGCUG
The procedure, abridged: as §1

Data set [3] deals with biotinyl-Val-oxazolone. Briefly: self-aminoacylation, catalytic enhancement (BVO) (fold over background); higher = more active; k-Seq, kA / k0A0; sequences stand for … in GGGAAUGGAUCCACAUCUACGAAUUC…UUCACUGCAGACUUGACGAAGCUG
The procedure, abridged:
as §1

The subject of data set [4] is biotinyl-Phe-oxazolone. Description: self-aminoacylation, catalytic enhancement (BFO) (fold over background); higher = more active; k-Seq, kA / k0A0; sequences stand for … in GGGAAUGGAUCCACAUCUACGAAUUC…UUCACUGCAGACUUGACGAAGCUG
The procedure, abridged:
as §1

The subject of data set [5] is biotinyl-Trp-oxazolone. Description: self-aminoacylation, catalytic enhancement (BWO) (fold over background); higher = more active; k-Seq, kA / k0A0; sequences stand for … in GGGAAUGGAUCCACAUCUACGAAUUC…UUCACUGCAGACUUGACGAAGCUG
The procedure, abridged:
as §1

The test system of data set [6] is biotinyl-Met-oxazolone. Description: self-aminoacylation, catalytic enhancement (BMO) (fold over background); higher = more active; k-Seq, kA / k0A0; sequences stand for … in GGGAAUGGAUCCACAUCUACGAAUUC…UUCACUGCAGACUUGACGAAGCUG
An outline of the steps: as §1

Variants at the floor of the assay were thinned out.

As to “AUUCACCAAGGCCAUCGGGUG [Fam2.2 aminoacylation ribozyme variant]”, the self-aminoacylation is 3.32 in data set [1]; 5.34 in data set [2]; 3.49 in data set [3]; 30.1 in data set [4]; 4.57 in data set [5]; 5.09 in data set [6].
Take “CCACACUUCCAGCAACCGGUC [Fam1B.1 aminoacylation ribozyme variant]”: the self-aminoacylation in data set [1] came out at 1.15; in data set [2], 0.925; in data set [3], 1.34; in data set [4], 0.744; in data set [5], 1.14; in data set [6], 0.879.
Consider “AAGUUUGCUAAUAGUCGUUAG [Fam3.1 aminoacylation ribozyme variant]”, for which the self-aminoacylation in data set [1] came out at 0.822; in data set [2], 0.801; in data set [3], 1.07; in data set [4] it was 2.27; in data set [5], 1.05; in data set [6], 0.676.
“CUACUUCACAAAAUCGGUCUG [Fam1A.1 aminoacylation ribozyme variant]”: the self-aminoacylation in data set [1] amounted to 0.985; in data set [2], 0.823; in data set [3], 0.831; in data set [4] it was 0.608; in data set [5] it was 0.739; in data set [6] it was 0.863.
As for “AUUACCCGGGUCAUUGAGUGA [Fam2.1 aminoacylation ribozyme variant]”, the self-aminoacylation in data set [1] was 4.35; in data set [2], 8.98; in data set [3], 4.83; in data set [4], 56.8; in data set [5], 10.8; in data set [6], 9.41.
Turning to “AAGUUUGCUGAUAGUCGCUAG [Fam3.1 aminoacylation ribozyme variant]”, the self-aminoacylation in data set [1] came out at 1.14; in data set [2] it was 1.08; in data set [3], 1.26; in data set [4], 1.86; in data set [5], 1.11; in data set [6], 1.31.
For “AUUACCCUAGUCAUCGCGUGA [Fam2.1 aminoacylation ribozyme variant]”, the self-aminoacylation in data set [1] worked out at 4.26; in data set [2], 9.91; in data set [3], 5.09; in data set [4], 54.5; in data set [5], 10.1; in data set [6], 8.29.
Regarding “AACUUUGUUAAUAGUCGCAAG [Fam3.1 aminoacylation ribozyme variant]”, the self-aminoacylation in data set [1] is 2.29; in data set [2], 2.47; in data set [3] it was 2.06; in data set [4], 3.96; in data set [5] it was 2.76; in data set [6], 2.26.
Regarding “AAGUUUGUUAAUCGUCGCAAG [Fam3.1 aminoacylation ribozyme variant]”, the self-aminoacylation in data set [1] came out at 1.21; in data set [2], 1.15; in data set [3], 1.22; in data set [4], 1.05; in data set [5], 1.04; in data set [6], 1.35.
Consider “CUACUUAAAAAAAUCGGUCUG [Fam1A.1 aminoacylation ribozyme variant]”, for which the self-aminoacylation in data set [1] was 0.88; in data set [2] it was 0.768; in data set [3], 0.804; in data set [4], 0.661; in data set [5], 0.49; in data set [6], 0.806.
Consider “AUUACCCUGCUCAUCGAGUGG [Fam2.1 aminoacylation ribozyme variant]”, for which the self-aminoacylation in data set [1] was 0.831; in data set [2], 1.09; in data set [3], 0.81; in data set [4], 0.52; in data set [5], 0.578; in data set [6] it was 1.
For “ACACCCUUCAAGCAAUCGGUC [Fam1B.1 aminoacylation ribozyme variant]”, the self-aminoacylation came to 1.01 in data set [1]; 0.984 in data set [2]; 1.02 in data set [3]; 2.12 in data set [4]; 1.59 in data set [5]; 0.897 in data set [6].
Consider “CCACACUUCAAGCGAUCGGUA [Fam1B.1 aminoacylation ribozyme variant]”, for which the self-aminoacylation in data set [1] is 1.22; in data set [2], 1.58; in data set [3] it was 2.2; in data set [4] it was 1.73; in data set [5], 0.843; in data set [6], 1.48.
Consider “AGUCACCUAGGUCAUCGGAUG [Fam2.2 aminoacylation ribozyme variant]”, for which the self-aminoacylation in data set [1] was found to be 1.2; in data set [2], 1.18; in data set [3], 1.04; in data set [4] it was 1.24; in data set [5], 0.786; in data set [6] it was 1.21.
As to “AUCACCCUGGUCAUAGAGUGA [Fam2.1 aminoacylation ribozyme variant]”, the self-aminoacylation in data set [1] was determined as 5.17; in data set [2] it was 13.2; in data set [3], 4.92; in data set [4], 85.7; in data set [5], 13.2; in data set [6], 13.6.
In the case of “CUACACUUCAAGCACUCGGUC [Fam1B.1 aminoacylation ribozyme variant]”, the self-aminoacylation in data set [1] is 0.886; in data set [2], 0.757; in data set [3] it was 0.945; in data set [4] it was 0.867; in data set [5], 0.614; in data set [6] it was 0.786.
Consider “CCAGACUUCAAGCAAUCCGUC [Fam1B.1 aminoacylation ribozyme variant]”, for which the self-aminoacylation turned out to be 1.67 in data set [1]; 1.45 in data set [2]; 1.58 in data set [3]; 1.19 in data set [4]; 1.95 in data set [5]; 1.47 in data set [6].
As to “AAGUUUGCGAAGAGUCGCAAG [Fam3.1 aminoacylation ribozyme variant]”, the self-aminoacylation in data set [1] is 1.36; in data set [2], 1.04; in data set [3], 1.21; in data set [4], 1.49; in data set [5] it was 1; in data set [6] it was 0.955.
Regarding “CCACACUUCUAGCCAUCGGUC [Fam1B.1 aminoacylation ribozyme variant]”, the self-aminoacylation in data set [1] stood at 0.924; in data set [2], 0.778; in data set [3], 1.01; in data set [4] it was 1.09; in data set [5], 0.962; in data set [6] it was 0.683.
Turning to “AUUAACCUGAUCAUCGAGUGA [Fam2.1 aminoacylation ribozyme variant]”, the self-aminoacylation in data set [1] amounted to 4.54; in data set [2], 10.2; in data set [3], 4.67; in data set [4], 41.3; in data set [5], 13.7; in data set [6] it was 9.97.
As for “CCACUUCUAACAAUCGGUCUG [Fam1A.1 aminoacylation ribozyme variant]”, the self-aminoacylation is 0.858 in data set [1]; 0.875 in data set [2]; 0.897 in data set [3]; 0.834 in data set [4]; 0.68 in data set [5]; 0.758 in data set [6].
